Measured values published in the supplement of paper PMC7877785.
± gives the uncertainty stated by the source.

Test: self-splicing fitness, log relative to wild type (ln ratio); higher = more splicing; Tetrahymena group I intron in knt gene, E. coli kanamycin selection, DiMSum; sequences stand for … in CUCUCU…GGAGGGAAAAGUUAUCAGGCAUGCACCUGGUAGCUAGUCUUUAAACCAAUAGAUUGCAUCGGUUUAAAAGGCAAGACCGUCAAAUUGCGGGAAAGGGGUCAACAGCCGUUCAGUACCAAGUCUCAGGGGAAACUUUGAGAUGGCCUUGCAAAGGGUAUGGUAAUAAGCUGACGGACAUGGUCCUAACCACGCAGCCAAGUCCUAAGUCAACAGAUCUUCUGUUGAUAUGGAUGCAGUUCACAGACUAAAUGUCGGUCGGGGAAGAUGUAUUCUUCUCAUAAGAUAUAGUCGGACCUCUCCUUAAUGGGAGCUAGCGGAUGAAGUGAUGCAACACUGGAGCCGCUGGGAACUAAUUUGUAUGCGAAAGUAUAUUGAUUAGUUUUGGAGUACUCGUGGUCG
Outline: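 Fitness was computed with DiMSum as the error-weighted combination of replicate fold changes, kanamycin versus none, each normalised to wild type. The library randomised all eight intron nucleotides of the P1ex region, with the intron placed in the knt kanamycin-resistance gene on pET-22b(+) in E. coli BL21(DE3). Six replicate transformations were grown overnight at 37°C or 30°C on LB agar with or without 25 μg/mL kanamycin, plus 100 μg/mL carbenicillin, 50 μM IPTG and 0.2% rhamnose. Pooled colonies were amplicon-sequenced on an Illumina HiSeq 2500.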

Row | Sequence | self-splicing fitness (ln) (30 °C) | self-splicing fitness (ln) (37 °C)
1 | UAGUAGCAAUAUUACGCGGG | -4.02 ± 0.34 | -2.49 ± 0.39
2 | UAGUAGCAAUAUUACGCUAU | -1.34 ± 0.21 | -1.16 ± 0.25
3 | UAGUAGCAAUAUUACGCUCC | -2.38 ± 0.45 | -0.239 ± 0.45
4 | UAGUAGCAAUAUUACGGAAA |  | -1.49 ± 0.3
5 | UAGUAGCAAUAUUACGGCCA | -1.22 ± 0.26 | 0.0405 ± 0.27
6 | UAGUAGCAAUAUUACGGCGC | -1.6 ± 0.46 | -1.4 ± 0.44
7 | UAGUAGCAAUAUUACGGGUC | -4.67 ± 0.46 | -2.97 ± 0.47
8 | UAGUAGCAAUAUUACGGGUU | -3.97 ± 0.27 | -2.66 ± 0.2
9 | UAGUAGCAAUAUUACGUACC | -2.29 ± 0.37 | -1.21 ± 0.27
10 | UAGUAGCAAUAUUACGUCCG | -0.377 ± 0.21 | -0.323 ± 0.36
11 | UAGUAGCAAUAUUACGUUGC |  | -1.53 ± 0.44
12 | UAUAAGCAAUAUUACGACAC | -1.87 ± 0.21 | -1.05 ± 0.26
13 | UAUAAGCAAUAUUACGACAU | -1.09 ± 0.014 | -0.413 ± 0.033
14 | UAUAAGCAAUAUUACGACUC | -1.51 ± 0.14 | -0.355 ± 0.14
15 | UAUAAGCAAUAUUACGCAAU | -2.11 ± 0.13 | -2.1 ± 0.15
16 | UAUAAGCAAUAUUACGCCUA | 0.213 ± 0.12 | 0.0424 ± 0.17
17 | UAUAAGCAAUAUUACGCCUU | -1.31 ± 0.1 | -0.179 ± 0.12
18 | UAUAAGCAAUAUUACGCGCU | -0.854 ± 0.18 | 0.225 ± 0.23
19 | UAUAAGCAAUAUUACGGACA | -0.702 ± 0.11 | 0.416 ± 0.13
20 | UAUAAGCAAUAUUACGGAUA | -0.466 ± 0.13 | -0.208 ± 0.13
21 | UAUAAGCAAUAUUACGGAUC | -2.57 ± 0.15 | -1.58 ± 0.18
22 | UAUAAGCAAUAUUACGUCCU | -1.28 ± 0.11 | 0.43 ± 0.14
23 | UAUAAGCAAUAUUACGUCGA | -1.56 ± 0.14 | -0.891 ± 0.16
24 | UAUAAGCAAUAUUACGUGGG | -2.83 ± 0.14 | -2.05 ± 0.12
25 | UAUCAGCAAUAUUACGAAAG | -1.62 ± 0.12 | -1.21 ± 0.17
26 | UAUCAGCAAUAUUACGAACC | -1.66 ± 0.24 | -0.148 ± 0.38

Row | Sequence | self-splicing fitness (ln) (30 °C) | self-splicing fitness (ln) (37 °C)
27 | UAUCAGCAAUAUUACGAACU | -1.2 ± 0.14 | 0.231 ± 0.13
28 | UAUCAGCAAUAUUACGAAGC | -3.75 ± 0.36 | -2.09 ± 0.31
29 | UAUCAGCAAUAUUACGAUAG | -0.799 ± 0.11 | 0.204 ± 0.15
30 | UAUCAGCAAUAUUACGCCAU | -1.73 ± 0.27 | -1.55 ± 0.28
31 | UAUCAGCAAUAUUACGCCGG | -0.251 ± 0.22 | 0.843 ± 0.26
32 | UAUCAGCAAUAUUACGCGCA | -0.571 ± 0.091 | 0.506 ± 0.11
33 | UAUCAGCAAUAUUACGCGCG | 0.181 ± 0.08 | -0.0803 ± 0.1
34 | UAUCAGCAAUAUUACGCGUG | -0.43 ± 0.062 | -0.319 ± 0.075
35 | UAUCAGCAAUAUUACGGCCU | -1.64 ± 0.1 | 0.0592 ± 0.12
36 | UAUCAGCAAUAUUACGGUAG | -1.26 ± 0.083 | 0.0233 ± 0.087
37 | UAUCAGCAAUAUUACGGUUU | -0.764 ± 0.062 | -0.507 ± 0.07
38 | UAUCAGCAAUAUUACGUACC | -2.13 ± 0.18 | -0.91 ± 0.21
39 | UAUCAGCAAUAUUACGUAUA | -0.696 ± 0.088 | -0.258 ± 0.1
40 | UAUCAGCAAUAUUACGUCGU | -3.02 ± 0.12 | -1.6 ± 0.1
41 | UAUCAGCAAUAUUACGUGAA | -0.844 ± 0.083 | 0.371 ± 0.11
42 | UAUCAGCAAUAUUACGUGAG | 0.239 ± 0.054 | 0.101 ± 0.084
43 | UAUCAGCAAUAUUACGUGCG | -0.0936 ± 0.087 | 0.327 ± 0.11
44 | UAUCAGCAAUAUUACGUUUC | -2.67 ± 0.21 | -1.73 ± 0.22
45 | UAUGAGCAAUAUUACGAACG | -2.98 ± 0.19 | -1.13 ± 0.16
46 | UAUGAGCAAUAUUACGAAUC |  | -1.07 ± 0.26
47 | UAUGAGCAAUAUUACGAGAG | -2.42 ± 0.43 | -2.72 ± 0.38
48 | UAUGAGCAAUAUUACGCAAC | -2.22 ± 0.32 | -2.49 ± 0.44
49 | UAUGAGCAAUAUUACGCCGG | -1.7 ± 0.11 | -0.905 ± 0.19
50 | UAUGAGCAAUAUUACGCUUA | -3.19 ± 0.41 | -1.47 ± 0.26
51 | UAUGAGCAAUAUUACGGACC | -2.56 ± 0.41 | -2.43 ± 0.31
52 | UAUGAGCAAUAUUACGGCUA | -0.67 ± 0.14 | -1.16 ± 0.16

Row | Sequence | self-splicing fitness (ln) (30 °C) | self-splicing fitness (ln) (37 °C)
53 | UAUGAGCAAUAUUACGGUAC | -4.01 ± 0.43 | -2.66 ± 0.48
54 | UAUGAGCAAUAUUACGGUUC | -3.43 ± 0.19 | -3.82 ± 0.46
55 | UAUGAGCAAUAUUACGUAAG |  | -2.16 ± 0.19
56 | UAUGAGCAAUAUUACGUAAU | -2.35 ± 0.17 | -2.34 ± 0.35
57 | UAUGAGCAAUAUUACGUCCG |  | -2.19 ± 0.43
58 | UAUGAGCAAUAUUACGUCUG | -0.9 ± 0.13 | -0.416 ± 0.15
59 | UAUGAGCAAUAUUACGUGGU |  | -2.75 ± 0.31
60 | UAUGAGCAAUAUUACGUUGU | -4.16 ± 0.24 | -2.27 ± 0.18
61 | UAUUAGCAAUAUUACGAACC | -0.688 ± 0.36 | 
62 | UAUUAGCAAUAUUACGACAA | -0.602 ± 0.17 | -0.127 ± 0.24
63 | UAUUAGCAAUAUUACGACCU | -1.41 ± 0.16 | -0.551 ± 0.15
64 | UAUUAGCAAUAUUACGAGCA | -0.606 ± 0.12 | -0.18 ± 0.17
65 | UAUUAGCAAUAUUACGAGGG | -3.12 ± 0.3 | -2.13 ± 0.3
66 | UAUUAGCAAUAUUACGAGUU | -2.88 ± 0.16 | -0.971 ± 0.15
67 | UAUUAGCAAUAUUACGCACU | -1.04 ± 0.19 | -1.12 ± 0.16
68 | UAUUAGCAAUAUUACGCAUU | -2.09 ± 0.15 | -1.48 ± 0.17
69 | UAUUAGCAAUAUUACGCCAU |  | -1.68 ± 0.21
70 | UAUUAGCAAUAUUACGCGAC | -3.03 ± 0.25 | -1.41 ± 0.24
71 | UAUUAGCAAUAUUACGCGUU | -3.05 ± 0.19 | -0.613 ± 0.15
72 | UAUUAGCAAUAUUACGCUGU | -2.57 ± 0.23 | 0.0696 ± 0.22
73 | UAUUAGCAAUAUUACGCUUU | -2.01 ± 0.16 | -0.435 ± 0.18
74 | UAUUAGCAAUAUUACGGAGC | -2.4 ± 0.42 | 
75 | UAUUAGCAAUAUUACGUAUA | -1.6 ± 0.18 | -2.03 ± 0.21
76 | UAUUAGCAAUAUUACGUAUG | -1.65 ± 0.15 | -0.344 ± 0.17
77 | UAUUAGCAAUAUUACGUGCG | -0.929 ± 0.079 | -0.636 ± 0.12
78 | UAUUAGCAAUAUUACGUGUA | -1.21 ± 0.16 | -0.828 ± 0.16
